Data: the Immune Epitope Database (IEDB)
pIC50: −log10 of the molar value.

Target: HLA-A*02:01
Assay: IEDB peptide-MHC binding, purified MHC/competitive/radioactivity; ≥ and ≤ were set here for values at or beyond the usual limits of such assays
Conditions: source organism: Human alphaherpesvirus 1

| Sequence | pIC50 |
| --- | --- |
| GLVSFNFLV | 9.30 |
| ALPDTVAPV | 8.04 |
| YFHALVYFV | 6.88 |
| GQAAALTDL | 5.64 |
| KQLNYCHLI | 6.40 |
| CLAEYCTSL | 6.73 |
| FLARFWTRA | 7.32 |
| FLADAVVRL | 7.28 |
| ALLPAPITL | 6.88 |
| YLARAAGLV | 6.68 |
| KMAQCTLAV | 7.85 |
| AVVPIIPFL | 5.99 |
| YVPPDMRGV | 6.29 |
| RMWAWIHGL | 7.21 |
| YVLNSQIAV | 6.92 |
| LLAQFQHTV | 8.92 |
| FVGVIILGV | 8.23 |
| RLYRWQPDL | 6.04 |
| RLCLDVPPV | 8.07 |
| FTINIAAYL | 6.91 |
| LLANNPPPV | 7.62 |
| FADSDGHYV | 6.85 |
| AVLADFSLV | 6.87 |
| LLAPGPLFV | 8.25 |
| IVYLCPVLV | 6.86 |

| Sequence | pIC50 |
| --- | --- |
| VLGAAVYAL | 7.00 |
| FMAAKAAHL | 6.56 |
| GMRGLVLAT | 5.44 |
| ALLGAWPAV | 8.60 |
| ALLEACLRV | 8.18 |
| WLETELVFV | 7.07 |
| YTFWRLDLV | 7.52 |
| FTATSIARV | 7.13 |
| GMLICLTVL | 6.26 |
| VLANFCSAL | 7.85 |
| QLFPGLAAL | 7.80 |
| FLGSCICFI | 7.92 |
| LLDFELACL | 7.20 |
| RLIDRMLTA | 8.07 |
| LLAFDTQPV | 8.03 |
| LLPAVQCAV | 7.20 |
| VLWSLLWLG | 8.85 |
| SLLLVVEGV | 8.06 |
| SLNARGLLV | 6.84 |
| MLLAFMTLV | 8.24 |
| ILMILIEGI | 7.92 |
| LLSGLPTYA | 6.75 |
| GLFVSLPVV | 8.33 |
| FIPQYLSAV | 7.82 |
| YLACLAAVI | 7.21 |

| Sequence | pIC50 |
| --- | --- |
| ALSPALTAL | 6.71 |
| TISKPSEAV | 5.32 |
| SLDAKQWSV | 8.12 |
| GLFQPFMFV | 7.43 |
| VLAAGVLVV | 6.63 |
| RLTGVTSLV | 7.89 |
| ILIEGIFFA | 9.77 |
| QLLSAVDYI | 6.90 |
| YLANGGFLI | 9.25 |
| ALHTALATV | 7.80 |
| QLLDPPAAV | 6.73 |
| EMIRYMALV | 6.75 |
| GILTVVWTA | 8.68 |
| LLLRQWLHV | 6.68 |
| VIACLLVAV | 6.69 |
| ALLQQTWTL | 9.41 |
| VILPACAFV | 8.21 |
| RLDAEYWSV | 7.36 |
| GMHPRGVHA | ≤ 4.15 |
| LMHATYFLA | 7.02 |
| LLLALRHPA | 6.22 |
| VLLEKAPPL | 7.62 |
| RLQEALAVV | 8.18 |
| FLCTADAAV | 8.52 |
| FVADVQHAA | 5.11 |

| Sequence | pIC50 |
| --- | --- |
| VVTAIVYVV | 6.58 |
| ALMRGRPGL | 5.78 |
| IIPFLLVLV | 7.26 |
| ILDAARPAV | 7.00 |
| ALAPVFAFL | 8.66 |
| MLCGFSPAL | 8.07 |
| FMPDFSRVI | 7.00 |
| GLAVAMEV | 7.60 |
| HMGEVPPRL | 5.76 |
| VLGAAIWWV | 7.14 |
| FVAPYFESV | 8.06 |
| GLVLVWYTV | 7.18 |
| VMAARPMVV | 6.58 |
| FLLAKLTDI | 8.00 |
| TLRGLFFSV | 7.03 |
| CLLCNLLLV | 7.22 |
| VLADAINGL | 7.07 |
| LLLHSLTPL | 8.16 |
| ALAVFQPAV | 8.80 |
| GLYLCVVYV | 7.33 |
| KMNQTLLFL | 6.04 |
| VLMDGHTGM | 6.87 |
| LMFDPRALA | 6.12 |
| ALMGAVTSL | 8.38 |
| ALSPVLPPM | 7.52 |

| Sequence | pIC50 |
| --- | --- |
| AMDSDLGSL | 6.01 |
| FLTCTDRSV | 7.08 |
| FAFRYVNRL | 6.91 |
| SVYALGFGV | 5.89 |
| QLQAAIFHA | 6.16 |
| YLDEAGGHL | 7.64 |
| FLMAPDLYV | 8.19 |
| FLGAGALAV | 7.10 |
| RVYNIIQLV | 4.71 |
| AMDLVLAAV | 8.36 |
| YLGAFLSVL | 7.80 |
| LVWYTVFGA | 6.46 |
| SLSTYTVPI | 7.89 |
| RTAWWVWCV | 7.59 |
| LLLISMYAL | 8.33 |
| YLCDNFCPA | 7.57 |
| FLRSCHWVL | 6.24 |
| DLWNVMYTL | 6.48 |
| LLMVAVIMAI | 8.05 |
| LLVEVLREI | 8.80 |
| FVVYNLTGV | 8.66 |
| RLSPFPALV | 7.22 |
| KLMARRAQV | 6.10 |
| RLATHLRAV | 6.80 |
| LLLVRAYWL | 7.20 |

| Sequence | pIC50 |
| --- | --- |
| FLAASALGV | 8.13 |
| TLLELVVSV | 8.74 |
| GLFQEAYPL | 8.27 |
| LITDDGEVV | 4.86 |
| RLLGFADTV | 7.57 |
| LVVTAIVYV | 6.73 |
| GLGRHLWRL | 6.88 |
| FLEDLSYPA | 9.19 |
| LLANTVRYL | 7.12 |
| FITTMAPRV | 7.49 |
| RLDSLDLTL | 7.00 |
| FVALIPPTL | 6.15 |
| NIGAYVVLV | 6.55 |
| YLALLEACL | 8.12 |
| FLGGHVAVA | 7.19 |
| TMRDDLPLV | 7.21 |
| KLAVYYYII | 7.51 |
| IAPNASLGV | 6.96 |
| ALDHYDCLI | 6.74 |
| YLLGRPPNA | 7.92 |
| SLLWLGAGV | 7.27 |
| VLTEPLCQV | 7.15 |
| SMFASCNLL | 7.54 |
| RLTGYPAGI | 5.96 |
| MLRDRWSLV | 6.51 |

| Sequence | pIC50 |
| --- | --- |
| DLAEWVPRV | 8.37 |
| ALYACVLAA | 8.25 |
| FTQKSLFPI | 7.08 |
| LLQRANELV | 6.20 |
| RMGELTAEI | 7.04 |
| ILFSYDELV | 8.25 |
| LLPEIAPNA | 7.52 |
| FLVPGTHVA | 7.35 |
| SLLALNEAL | 7.27 |
| SLLSLEHTL | 7.26 |
| FLALVSNRV | 8.13 |
| VLCGIAWYV | 8.10 |
| LLSALGLSV | 8.05 |
| MLLATREYV | 7.34 |
| RLPPHTQPV | 7.51 |
| IILTLIPRL | 6.90 |
| TLIPRLFAL | 7.46 |
| GLLRVGADT | 4.62 |
| GLARLDALV | 7.89 |
| AMHARMAAV | 7.72 |
| AVLAFVALI | 6.97 |
| LLAENLPGL | 8.96 |
| LLFNSLYPA | 8.82 |
| YIFSYDAYT | 6.51 |
| RLASLLTYA | 8.10 |

| Sequence | pIC50 |
| --- | --- |
| ALVAWLTHA | 7.82 |
| FLCAKCLGA | 6.86 |
| FLTREILWA | 8.38 |
| ALGLSAFGV | 8.02 |
| GLLFVLLVA | 5.97 |
| FMSVVNTNI | 7.22 |
| ALVACVAAL | 7.26 |
| AVFGVVAIV | 6.60 |
| FLYLAFVAL | 5.71 |
| GLAVDLYAL | 7.92 |
| SQTQPPAPV | 6.11 |
| LLMNELLRV | 8.08 |
| LLLAVAVYA | 7.03 |
| KLCSPVFAI | 8.03 |
| FLAPELVRA | 7.92 |
| MQFVDRFVV | 6.68 |
| RIQQYMFFM | 7.09 |
| ALMLRLLRI | 7.34 |
| KSMDDDTYV | 6.16 |
| AVWISLAQV | 6.59 |
| RLLQSFLKV | 7.09 |
| FALDRPCLV | 7.12 |
| YLATGALLA | 7.26 |
| VMAAVCLQI | 7.82 |
| FLASLVVLA | 8.77 |

| Sequence | pIC50 |
| --- | --- |
| LLYLITNYL | 7.96 |
| FLSTLPSDV | 7.12 |
| LLGQVQTYV | 7.74 |
| GLNGDSFRV | 7.66 |
| AIVVVIILV | 5.16 |
| KIFRCLTVL | 6.80 |
| FVPYVLALV | 9.05 |
| TLLDQNNAL | 7.41 |
| WLLQITVLL | 6.89 |
| GLLGSLVGA | 8.43 |
| VLADDVYPL | 8.62 |
| ALATALTEA | 8.00 |
| ALAFDSTRV | 6.19 |
| YVLHFACLV | 8.12 |
| YLLEQLNNL | 8.24 |
| FLTTPVPSL | 6.95 |
| RLFDFFSRV | 9.70 |
| RLPHICYPV | 7.77 |
| FMHIWLQAA | 7.09 |
| HLCRYVALL | 6.70 |
| QLFEAHPNV | 6.59 |
| TLLRLACEV | 7.19 |
| GIAWYVTSI | 6.84 |
| FLWSFLVLK | 5.85 |
| SPGGFVQFV | 6.35 |

| Sequence | pIC50 |
| --- | --- |
| GMVIACLLV | 6.60 |
| MLWTTDKHV | 5.89 |
| YLREYVTRL | 6.94 |
| LLIDTGVYA | 7.03 |
| FVFVILARL | 6.14 |
| RLTEDDFGL | 7.11 |
| FVYTPSPYV | 6.89 |
| IIWGELFGV | 8.64 |
| ALVELNSGV | 8.03 |
| TMLEDHEFV | 6.93 |
| RLVVVGWFL | 6.06 |
| FMVSSIDEL | 8.96 |
| SEEEGNFYV | 4.72 |
| MVIACLLVA | 6.78 |
| NTLMFMVYV | 7.16 |
| VLAAVLLGA | 7.28 |
| LVLNMVYSI | 7.03 |
| VLDCVVTGA | 6.01 |
| FMTALVLSL | 9.10 |
| RLPLYEALV | 7.02 |
| RLVDGVGGI | 6.66 |
| MLIDLGLDL | 7.85 |
| ALLDRDCRV | 8.25 |
| AVHDPERPL | 5.40 |
| ALYYSVENV | 7.42 |

| Sequence | pIC50 |
| --- | --- |
| LMPSPPMPV | 6.91 |
| YMAKLHAYL | 7.96 |
| GLDEQQLDV | 5.93 |
| LLNNYDVLV | 8.00 |
| SQLAHLVYV | 7.21 |
| MLDTWNEDL | 6.99 |
| LLSNTLAEL | 8.29 |
| QLLADFPEA | 6.88 |
| YLSEEMMEL | 8.20 |
| SLQQELAHM | 7.15 |
| AMNRRIMNV | 5.92 |
| DMTPAELEV | 6.17 |
| VLPATFAAV | 7.96 |
| GLVFRFSEV | 6.58 |
| ALAAIENYV | 8.57 |
| HMFCDPMCA | 6.10 |
| VLGCDAALV | 6.28 |
| VLVVQPAPV | 6.95 |
